In publication PMC3406103:

Tested on: C/EBPβ (endogenous, HaCaT nuclear extract)
Test: EMSA
Settings: 10 mM Tris-HCl pH 7.5, 50 mM NaCl, 1 mM EDTA, 15% glycerol, 1 mg/ml BSA, 25 µg/ml poly(dI-dC), 11.5 mM DTT, 26 µg/ml aprotinin, 1.5 mM PMSF, 0.5 mg/ml salmon …; scale: % of pLXSN control, normalized to C/EBPβ level

In the case of CCL20 promoter nt 734-748, the binding signal is reported as < 50.
